Like-named read-outs stand apart in the source and are kept apart here.
What was measured:
[1] = biological target: T1, SARS-CoV-2 spike S2 peptide 1143-1162, biotinylated (SARS-CoV-2); experiment: SPR, Fab over captured biotin-peptide, 25 C
[2] = biological target: T2, SARS-CoV-2 spike S2 peptide 1149-1167, biotinylated (SARS-CoV-2); experiment: SPR, Fab over captured biotin-peptide, 25 C
[3] = biological target: T2, SARS-CoV-2 spike S2 peptide 1149-1167, …; experiment: SPR, Fab over captured biotin-peptide, 25 C; remark: listed apart in the source
[4] = biological target: HIV-1 Env peptide, biotinylated (negative control) (HIV-1); experiment: DELFIA on captured biotin-peptide; design: unit not given beside the values
[5] = biological target: T2, SARS-CoV-2 spike S2 peptide 1149-1167, …; experiment: DELFIA on captured biotin-peptide; design: unit not given beside the values
[6] = biological target: T1, SARS-CoV-2 spike S2 peptide 1143-1162, …; experiment: DELFIA on captured biotin-peptide; design: unit not given beside the values

Binder | Kd [1] [nM] | koff [1] [s⁻¹] | kon [1] [M⁻¹ s⁻¹] | Kd [2] [nM] | koff [2] [s⁻¹] | kon [2] [M⁻¹ s⁻¹] | Kd [3] [nM] | AUC [4] | AUC [5] | AUC [6]
AB-1 Fab (Fab, V domains shown) VH: EVQLVESGAEVKKPGESLKISCKGSGYTFTRYWIGWVRQMPGKGLEWMGIIYPGDSDVRYSPSFQGHVTISADKSISTAYLQWNSLKASDTAMYYCARLPQYCSKGVCYRWFDPWGQGTLVTVSS VL: EIVLTQSPSSVSASVGDRVTITCRASQGISSWLAWYQQKPGKAPKLLIYAASSLQSGVPSRFSGSGSGTDFTLTISSLQPEDFATYYCQQGHSFPYTFGQGTNLEIK | 12.3 | 0.037 | 3e+06 | 0.9 | 0.00241 | 2.61e+06 | 0.925 | – | – | –
Reference Antibody (antibody, V domains shown) VH: EVQLVESGAEVKKPGESLKISCKGSGYTFTRYWIGWVRQMPGKGLEWMGIIYPGDSDTRYSPSFQGHVTISADKSISTAYLQWNSLKASDTAMYYCARLPQYCSNGVCQRWFDPWGQGTLVTVSS VL: EIVLTQSPSSVSASVGDRVTITCRASQGISSWLAWYQQKPGKAPKLLIYAASSLQSGVPSRFSGSGSGTDFTLTISSLQPEDFATYYCQQGNSFPYTFGQGTNLEIK | – | – | – | – | – | – | – | 16100 | 3.05e+06 | –
Reference Antibody Fab (Fab, V domains shown) VH: EVQLVESGAEVKKPGESLKISCKGSGYTFTRYWIGWVRQMPGKGLEWMGIIYPGDSDTRYSPSFQGHVTISADKSISTAYLQWNSLKASDTAMYYCARLPQYCSNGVCQRWFDPWGQGTLVTVSS VL: EIVLTQSPSSVSASVGDRVTITCRASQGISSWLAWYQQKPGKAPKLLIYAASSLQSGVPSRFSGSGSGTDFTLTISSLQPEDFATYYCQQGNSFPYTFGQGTNLEIK | – | – | – | 5.4 | 0.00498 | 929000 | 5.36 | – | – | –
AB-1 (antibody, V domains shown) VH: EVQLVESGAEVKKPGESLKISCKGSGYTFTRYWIGWVRQMPGKGLEWMGIIYPGDSDVRYSPSFQGHVTISADKSISTAYLQWNSLKASDTAMYYCARLPQYCSKGVCYRWFDPWGQGTLVTVSS VL: EIVLTQSPSSVSASVGDRVTITCRASQGISSWLAWYQQKPGKAPKLLIYAASSLQSGVPSRFSGSGSGTDFTLTISSLQPEDFATYYCQQGHSFPYTFGQGTNLEIK | – | – | – | – | – | – | – | 9860 | 3.27e+06 | 3.52e+06
